# Legend:
# Type in all cases: biochemical
# [1] = HTP-analysis of yeast culture supernatants, no challenge (MUGal hydrolysis); conditions: activity of the variant/activity of Rd4BB (SEQ ID NO: 15)
# In short: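 GLA variants were expressed in INVSc1 yeast grown in SD-Ura broth with glucose at 30° C., and culture supernatants were collected after 66-84 h. Supernatant was mixed with McIlvaine buffer pH 4.8 and MUGal (2 mM stock) in 50 mM citrate, 200 mM KCl, pH 4.6, incubated at 37° C. for 30-180 minutes, then quenched with sodium carbonate.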
# [2] = HTP-analysis of supernatants pretreated with acid (MUGal hydrolysis); conditions: activity of the variant/activity of Rd4BB (SEQ ID NO: 15); challenge at pH 3.7
# In short: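 MUGal hydrolysis was tracked by fluorescence (Ex 355 nm, Em 448 nm) after a 30-180 min reaction at 37° C. in pH 4.8 McIlvaine/citrate buffer, stopped with 1 M sodium carbonate. Beforehand, yeast (INVSc1) culture supernatants carrying GLA variants were held 1-3 h at 37° C. in acidic McIlvaine buffer, pH 3.3-4.3.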
# [3] = HTP-analysis of supernatants pretreated with base (MUGal hydrolysis); conditions: activity of the variant/activity of Rd4BB (SEQ ID NO: 15); challenge at pH 9.65
# In short: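 GLA variants secreted from yeast INVSc1; culture supernatants pre-incubated with McIlvaine buffer pH 7.0–8.2 or 200 mM bicarbonate pH 9.1–9.7 at 37° C. for 1–18 h. Residual activity: MUGal (4 mM stock) hydrolysis at pH 4.3–4.8, 37° C., 30–180 min, carbonate quench; fluorescence Ex 355/Em 448 nm.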
Molecule,Relative Activity of GLA Variants After No Challenge (NC) [1],Relative Activity of GLA Variants After Challenge at pH 3.7 [2],Relative Activity of GLA Variants After Challenge at pH 9.65 [3]
"439 (protein, Synthetic Polypeptide sequence of Variant No. 439 of mature Human GLA) LDNGLARTPTMGWLHWERFMCNLDCQEEPDSCISEKLFMEMAERMVSEGWKDAGYEYLCIDDCWMAPQRDSEGRLQADPQRFPHGIRQLANYVHSKGLKLGIYADVGNKTCAGFPGSFGYYDIDAQTFADWGVDLLKFDGCYCDSLENLADGYKHMSLALNRTGRSIVYSCEWPLYMWPFQKPNYTEIRQYCNHWRNFADIDDSWKSIKSILDWTSRNQERIVDVAGPGGWNDPDMLVIGNFGLSWDQQVTQMALWAIMAAPLFMSNDLRAISPQAKALLQDKDVIAINQDPLGKQGYQLRKGDNFEVWERPLSGDAWAVAIINRQEIGGPRSYTIPVASLGKGVACNPACFITQLLPVKRQLGFYNWTSRLKSHINPTGTVLLQLENTMQMSLKDLL",+ (0.5 to 1.5 relative activity over Rd4BB (SEQ ID NO: 15)),+ (0.5 to 1.5 relative activity over Rd4BB (SEQ ID NO: 15)),+ (0.5 to 1.5 relative activity over Rd4BB (SEQ ID NO: 15))
"443 (protein, Synthetic Polypeptide sequence of Variant No. 443 of mature Human GLA) LDNGLARTPTMGWLHWERFMCNLDCQEEPDSCISEKLFMEMAERMVSEGWKDAGYEYLCIDDCWMAPQRDSEGRLQADPQRFPHGIRQLANYVHSKGLKLGIYADVGNKTCAGFPGSFGYYDIDAQTFADWGVDLLKFDGCYCDSLENLADGYKHMSLALNRTGRSIVYSCEWPLYMWPFQKPNYTEIRQYCNHWRNFADIDDSWASIKSILDWTSRNQERIVDVAGPGGWNDPDMLVIGNFGLSWDQQVTQMASWAIMAAPLFMSNDLRHISPQAKALLQDKDVIAINQDPLGKQGYQLRKGDNFEVWERPLSGDAWAVAIINRQEIGGPRSYTIPVASLGKGVACNPACFITQLLPVKRQLGFYNWTSRLKSHINPTGTVLLQLENTMQMSLKDLL",+ (0.5 to 1.5 relative activity over Rd4BB (SEQ ID NO: 15)),+++ (>2.5 relative activity over Rd4BB (SEQ ID NO: 15)),− (<0.5 relative activity over Rd4BB (SEQ ID NO: 15))
"440 (protein, Synthetic Polypeptide sequence of Variant No. 440 of mature Human GLA) LDNGLARTPTMGWLHWERFMCNLDCQEEPDSCISEKLFMEMAERMVSEGWKDAGYEYLCIDDCWMAPQRDSEGRLQADPQRFPHGIRQLANYVHSKGLKLGIYADVGNKTCAGFPGSFGYYDIDAQTFADWGVDLLKFDGCYCDSLENLADGYKHMSLALNRTGRSIVYSCEWPLYMWPFQKPNYTEIRQYCNHWRNFADIDDSWKSIKSILDWTSRNQERIVDVAGPGGWNDPDMLVIGNFGLSWDQQVTQMALWAIMAAPCFMSNDLRHISPQAKALLQDKDVIAINQDPLGKQGYQLRKGDNFEVWERPLSGDAWAVAIINRQEIGGPRSYTIPVASLGKGVACNPACFITQLLPVKRQLGFYNWTSRLKSHINPTGTVLLQLENTMQMSLKDLL",+ (0.5 to 1.5 relative activity over Rd4BB (SEQ ID NO: 15)),+ (0.5 to 1.5 relative activity over Rd4BB (SEQ ID NO: 15)),− (<0.5 relative activity over Rd4BB (SEQ ID NO: 15))
"444 (protein, Synthetic Polypeptide sequence of Variant No. 444 of mature Human GLA) LDNGLARTPTMGWLHWERFMCNLDCQEEPDSCISEKLFMEMAERMVSEGWKDAGYEYLCIDDCWMAPQRDSEGRLQADPQRFPHGIRQLANYVHSKGLKLGIYADVGNKTCAGFPGSFGYYDIDAQTFADWGVDLLKFDGCYCDSLENLADGYKHMSLALNRTGRSIVYSCEWPLYMWPFQKPNYTEIRQYCNHWRNFADIDDSWKSIKSILDWTSRNQERIVDVAGPGGWNDPDMLVIGNFGLSWDQQVTQMALWAIWAAPLFMSNDLRHISPQAKALLQDKDVIAINQDPLGKQGYQLRKGDNFEVWERPLSGDAWAVAIINRQEIGGPRSYTIPVASLGKGVACNPACFITQLLPVKRQLGFYNWTSRLKSHINPTGTVLLQLENTMQMSLKDLL",+ (0.5 to 1.5 relative activity over Rd4BB (SEQ ID NO: 15)),− (<0.5 relative activity over Rd4BB (SEQ ID NO: 15)),+ (0.5 to 1.5 relative activity over Rd4BB (SEQ ID NO: 15))
"446 (protein, Synthetic Polypeptide sequence of Variant No. 446 of mature Human GLA) LDNGLARTPTMGWLHWERFMCNLDCQEEPDSCISEKLFMEMAERMVSEGWKDAGYEYLCIDDCWMAPQRDSEGRLQADPQRFPHGIRQLANYVHSKGLKLGIYADVGNKTCAGFPGSFGYYDIDAQTFADWGVDLLKFDGCYCDSLENLADGYKHMSLALNRTGRSIVYSCEWPLYMWPFQKPNYTEIRQYCNHWRNFADIDDSWKSIKSILDWTSRNQERIVDVAGPGGWNDPDMLVIGNFGLSWDQQVTQMALWAIAAAPLFMSNDLRHISPQAKALLQDKDVIAINQDPLGKQGYQLRKGDNFEVWERPLSGDAWAVAIINRQEIGGPRSYTIPVASLGKGVACNPACFITQLLPVKRQLGFYNWTSRLKSHINPTGTVLLQLENTMQMSLKDLL",+ (0.5 to 1.5 relative activity over Rd4BB (SEQ ID NO: 15)),− (<0.5 relative activity over Rd4BB (SEQ ID NO: 15)),− (<0.5 relative activity over Rd4BB (SEQ ID NO: 15))
"442 (protein, Synthetic Polypeptide sequence of Variant No. 442 of mature Human GLA) LDNGLARTPTMGWLHWERFMCNLDCQEEPDSCISEKLFMEMAERMVSEGWKDAGYEYLCIDDCWMAPQRDSEGRLQADPQRFPHGIRQLANYVHSKGLKLGIYADVGNKTCAGFPGSFGYYDIDAQTFADWGVDLLKFDGCYCDSLENLADGYKHMSLALNRTGRSIVYSCEWPLYMWPFQKPNYTEIRQYCNHWRNFADIDDSWKSIKSILDWTSRNQERIVDVAGPGGWNDPDMLVIGNFGLSWDQQVTQMAAWAIMAAPLFMSNDLRHISPQAKALLQDKDVIAINQDPLGKQGYQLRKGDNFEVWERPLSGDAWAVAIINRQEIGGPRSYTIPVASLGKGVACNPACFITQLLPVKRQLGFYNWTSRLKSHINPTGTVLLQLENTMQMSLKDLL",+ (0.5 to 1.5 relative activity over Rd4BB (SEQ ID NO: 15)),+ (0.5 to 1.5 relative activity over Rd4BB (SEQ ID NO: 15)),− (<0.5 relative activity over Rd4BB (SEQ ID NO: 15))
"445 (protein, Synthetic Polypeptide sequence of Variant No. 445 of mature Human GLA) LDNGLARTPTMGWLHWERFMCNLDCQEEPDSCISEKLFMEMAERMVSEGWKDAGYEYLCIDDCWMAPQRDSEGRLQADPQRFPHGIRQLANYVHSKGLKLGIYADVGNKTCAGFPGSFGYYDIDAQTFADWGVDLLKFDGCYCDSLENLADGYKHMSLALNRTGRSIVYSCEWPLYMWPFQKPNYTEIRQYCNHWRNFADIDDSWKSIKSILDWTSRNQERIVDVAGPGGWNDPDMLVIGNFGLSWDQQVTQMALWAIMAAPFFMSNDLRHISPQAKALLQDKDVIAINQDPLGKQGYQLRKGDNFEVWERPLSGDAWAVAIINRQEIGGPRSYTIPVASLGKGVACNPACFITQLLPVKRQLGFYNWTSRLKSHINPTGTVLLQLENTMQMSLKDLL",+ (0.5 to 1.5 relative activity over Rd4BB (SEQ ID NO: 15)),+ (0.5 to 1.5 relative activity over Rd4BB (SEQ ID NO: 15)),− (<0.5 relative activity over Rd4BB (SEQ ID NO: 15))
"441 (protein, Synthetic Polypeptide sequence of Variant No. 441 of mature Human GLA) LDNGLARTPTMGWLHWERFMCNLDCQEEPDSCISEKLFMEMAERMVSEGWKDAGYEYLCIDDCWMAPQRDSEGRLQADPQRFPHGIRQLANYVHSKGLKLGIYADVGNKTCAGFPGSFGYYDIDAQTFADWGVDLLKFDGCYCDSLENLADGYKHMSLALNRTGRSIVYSCEWPLYMWPFQKPNYTEIRQYCNHWRNFADIDDSWKSIKSILDWTSRNQERIVDVAGPGGWNDPDMLVIGNFGLSWDQQVTQMALWAIMAAPLFMSNDLRVISPQAKALLQDKDVIAINQDPLGKQGYQLRKGDNFEVWERPLSGDAWAVAIINRQEIGGPRSYTIPVASLGKGVACNPACFITQLLPVKRQLGFYNWTSRLKSHINPTGTVLLQLENTMQMSLKDLL",+ (0.5 to 1.5 relative activity over Rd4BB (SEQ ID NO: 15)),− (<0.5 relative activity over Rd4BB (SEQ ID NO: 15)),+ (0.5 to 1.5 relative activity over Rd4BB (SEQ ID NO: 15))

# Reference: patent publication US11278600B2, “Human alpha-galactosidase variants” (Codexis, Inc., priority 2014, dated 2022)
